According to patent publication US7799326B2, “Methods and compositions for cathespin k complex-mediated disorders” (Mount Sinai School of Medicine, priority 2001, dated 2010):
Entries after “also recorded” stand apart in the source; their conditions may differ.

Legend:
[1] = Mobility shift assay of complex formation of proteases with CSA; assay type: binding
Procedure: The gel was run at about 25° C. 55 V, 250 mA for 30 min, then dried and developed the radio signal on a film.

gelatin = test: Gelatin hydrolysis by cathepsin K mutant proteins; assay type: biochemical
type I collagen = test: Type I collagen hydrolysis by cathepsin K mutant proteins; assay type: biochemical, bovine; settings: 800 nM protein, 0.4 mg/ml collagen, 0.15% CSA, 8 h at 28 C, pH 5.5
Procedure: (§1) The mutant proteins were generated to characterize cluster 1:K77A, R79A (mutant 1), K103, K106A, R108A, R111A, (mutant 2), K77A, R79A, K103, K106A, R108A,R111A (mutant 3), K77A, R79A, K103, K106A, R108A,R111A, K122A, R127A (mutant 4). Mutant proteins were expressed in Pichia pastoris and the activity of the protein was determined towards two synthetic peptide substrates, gelatin and type I native collagen. […] The cleavage products were separated by SDS polyacrylamide electrophoresis using 4-20% Tris Glycine gels.

[2] = Activity of cathepsin K mutant proteins towards synthetic peptide substrates; assay type: biochemical; settings: Example 17 mutants
Procedure: as §1

B1: Y212C: pycnodysostosis-causing cathepsin K mutant (protein, UniProt P43235 115-329, looked up, variant Y212C)
Cathepsin K: APDSVDYRKKGYVTPVKNQGQCGSCWAFSSVGALEGQLKKKTGKLLNLSPQNLVDCVSENDGCGGGYMTNAFQYVQKNRGIDSEDAYPYVGQEESCMCNPTGKAAKCRGYREIPEGNEKALKRAVARVGPVSVAIDASLTSFQFYSKGVYYDESCNSDNLNHAVLAVGYGIQKGNKHWIIKNSWGENWGNKGYILMARNKNNACGIANLASFPKM
complex formation with CSA ([1]; 0.2 μg/ml and 1000 μg/ml CSA): unable to form a complex with CSA | gelatin hydrolysis by the protease (gelatin; 1 nM Y212C, 0.15% CSA, 37 C for 8 h): exhibited gelatinase activity

B2: mutant 1: cathepsin K mutant K77A, R79A (protein, UniProt P43235 115-329, looked up, variant K77A R79A)
Cathepsin K: APDSVDYRKKGYVTPVKNQGQCGSCWAFSSVGALEGQLKKKTGKLLNLSPQNLVDCVSENDGCGGGYMTNAFQYVQANAGIDSEDAYPYVGQEESCMYNPTGKAAKCRGYREIPEGNEKALKRAVARVGPVSVAIDASLTSFQFYSKGVYYDESCNSDNLNHAVLAVGYGIQKGNKHWIIKNSWGENWGNKGYILMARNKNNACGIANLASFPKM
degradation of type I collagen by the protease (type I collagen): complete degradation of type I collagen | degradation of type I collagen by the protease (type I collagen; listed as Mutant 1): did not reveal an inhibition

B3: mutant 5: cathepsin K mutant K9E (protein, UniProt P43235 115-329, looked up, variant K9E)
Cathepsin K: APDSVDYREKGYVTPVKNQGQCGSCWAFSSVGALEGQLKKKTGKLLNLSPQNLVDCVSENDGCGGGYMTNAFQYVQKNRGIDSEDAYPYVGQEESCMYNPTGKAAKCRGYREIPEGNEKALKRAVARVGPVSVAIDASLTSFQFYSKGVYYDESCNSDNLNHAVLAVGYGIQKGNKHWIIKNSWGENWGNKGYILMARNKNNACGIANLASFPKM
complex formation with CSA ([1]; Example 17 mutants, gel-mobility assay): still revealed complex formation | activity towards gelatin compared with wild type (gelatin; Example 17 mutants): fully active | degradation of type I collagen by the protease (type I collagen): strongly inhibited; also recorded: significantly reduced | activity towards synthetic peptide substrates compared with wild type [2]: fully active

B4: Cat S: human cathepsin S, closely related cysteine protease (protein, UniProt P25774 115-331, looked up)
Cathepsin S: LPDSVDWREKGCVTEVKYQGSCGACWAFSAVGALEAQLKLKTGKLVSLSAQNLVDCSTEKYGNKGCNGGFMTTAFQYIIDNKGIDSDASYPYKAMDQKCQYDSKYRAATCSKYTELPYGREDVLKEAVANKGPVSVGVDARHPSFFLYRSGVYYEPSCTQNVNHGVLVVGYGDLNGKEYWLVKNSWGHNFGEEGYIRMARNKGNHCGIASFPSYPEI
complex formation with CSA ([1]; 50 ng [125I]DCG-04 labeled protease, 0.1% CSA): Only cathepsin K formed a stable complex
